Source: the supplement of paper PMC9112550, “Optimization of the antimicrobial peptide Bac7 by deep mutational scanning” (BMC Biology, 2022)

Tested on: Escherichia coli TOP10
Assay: shrunken log2 fold change of peptide-encoding DNA abundance (4.5 h post-induction vs induction); higher = less antimicrobial activity (less host growth inhibition)
Conditions: time post-induction: 4.5 h; library: site-saturation at positions 5, 18, 19, 20
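Also: peptides expressed intracellularly from a pBAD plasmid library in pooled LB shake-flask culture, induced with 0.3% L-arabinose, DNA abundance read by NGS, three biological replicates, DESeq2 with apeglm shrinkage.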

RRIRTRPPRLPRPRPRPIYQPRP
shrunken log2 fold change: -0.364

RRIRTRPPRLPRPRPRPKACPRP
shrunken log2 fold change: 0.0653

RRIRTRPPRLPRPRPRPKCLPRP
shrunken log2 fold change: -0.0528

RRIRTRPPRLPRPRPRPKDGPRP
shrunken log2 fold change: -0.0362

RRIRTRPPRLPRPRPRPKDIPRP
shrunken log2 fold change: -0.482

RRIRTRPPRLPRPRPRPKDQPRP
shrunken log2 fold change: -0.0284

RRIRTRPPRLPRPRPRPKEHPRP
shrunken log2 fold change: -0.174

RRIRTRPPRLPRPRPRPKEQPRP
shrunken log2 fold change: 0.0592

RRIRTRPPRLPRPRPRPKFQPRP
shrunken log2 fold change: 0.114

RRIRTRPPRLPRPRPRPKFYPRP
shrunken log2 fold change: -0.272

RRIRTRPPRLPRPRPRPKGMPRP
shrunken log2 fold change: 0.138

RRIRTRPPRLPRPRPRPKHCPRP
shrunken log2 fold change: -0.0769

RRIRTRPPRLPRPRPRPKHGPRP
shrunken log2 fold change: -0.0288

RRIRTRPPRLPRPRPRPKKMPRP
shrunken log2 fold change: 0.0999

RRIRTRPPRLPRPRPRPKLFPRP
shrunken log2 fold change: -0.0805

RRIRTRPPRLPRPRPRPKLMPRP
shrunken log2 fold change: -0.102

RRIRTRPPRLPRPRPRPKMVPRP
shrunken log2 fold change: -0.0237

RRIRTRPPRLPRPRPRPKNPPRP
shrunken log2 fold change: -0.0748

RRIRTRPPRLPRPRPRPKPEPRP
shrunken log2 fold change: 0.0154

RRIRTRPPRLPRPRPRPKQVPRP
shrunken log2 fold change: -0.0584

RRIRTRPPRLPRPRPRPKRRPRP
shrunken log2 fold change: 0.513

RRIRTRPPRLPRPRPRPKSGPRP
shrunken log2 fold change: 0.0903

RRIRTRPPRLPRPRPRPKSIPRP
shrunken log2 fold change: -0.194

RRIRTRPPRLPRPRPRPKTFPRP
shrunken log2 fold change: -0.00423

RRIRTRPPRLPRPRPRPKTGPRP
shrunken log2 fold change: -0.104

RRIRTRPPRLPRPRPRPKVVPRP
shrunken log2 fold change: 2.37

RRIRTRPPRLPRPRPRPKYEPRP
shrunken log2 fold change: -0.144

RRIRTRPPRLPRPRPRPKYQPRP
shrunken log2 fold change: -0.68

RRIRTRPPRLPRPRPRPLARPRP
shrunken log2 fold change: -0.0885

RRIRTRPPRLPRPRPRPLCVPRP
shrunken log2 fold change: -0.357

RRIRTRPPRLPRPRPRPLDKPRP
shrunken log2 fold change: -0.18

RRIRTRPPRLPRPRPRPLDMPRP
shrunken log2 fold change: -0.247

RRIRTRPPRLPRPRPRPLDTPRP
shrunken log2 fold change: -0.566

RRIRTRPPRLPRPRPRPLEGPRP
shrunken log2 fold change: -0.0217

RRIRTRPPRLPRPRPRPLEQPRP
shrunken log2 fold change: -0.102

RRIRTRPPRLPRPRPRPLFFPRP
shrunken log2 fold change: -0.263

RRIRTRPPRLPRPRPRPLGVPRP
shrunken log2 fold change: -0.194

RRIRTRPPRLPRPRPRPLHFPRP
shrunken log2 fold change: -0.189

RRIRTRPPRLPRPRPRPLIQPRP
shrunken log2 fold change: -0.197

RRIRTRPPRLPRPRPRPLLVPRP
shrunken log2 fold change: -0.119

RRIRTRPPRLPRPRPRPLMIPRP
shrunken log2 fold change: -0.0131

RRIRTRPPRLPRPRPRPLNNPRP
shrunken log2 fold change: -0.135

RRIRTRPPRLPRPRPRPLPAPRP
shrunken log2 fold change: 0.364

RRIRTRPPRLPRPRPRPLQWPRP
shrunken log2 fold change: 0.206

RRIRTRPPRLPRPRPRPLRGPRP
shrunken log2 fold change: 0.897

RRIRTRPPRLPRPRPRPLRIPRP
shrunken log2 fold change: 0.00602

RRIRTRPPRLPRPRPRPLRTPRP
shrunken log2 fold change: 0.26

RRIRTRPPRLPRPRPRPLSAPRP
shrunken log2 fold change: 0.369

RRIRTRPPRLPRPRPRPLSFPRP
shrunken log2 fold change: -0.124

RRIRTRPPRLPRPRPRPLSWPRP
shrunken log2 fold change: 0.0654

RRIRTRPPRLPRPRPRPLTEPRP
shrunken log2 fold change: -0.23

RRIRTRPPRLPRPRPRPLTKPRP
shrunken log2 fold change: 0.0652

RRIRTRPPRLPRPRPRPLVEPRP
shrunken log2 fold change: -0.0326

RRIRTRPPRLPRPRPRPLYCPRP
shrunken log2 fold change: -0.715

RRIRTRPPRLPRPRPRPLYDPRP
shrunken log2 fold change: -0.824

RRIRTRPPRLPRPRPRPMAAPRP
shrunken log2 fold change: 0.0975

RRIRTRPPRLPRPRPRPMAFPRP
shrunken log2 fold change: -0.0075

RRIRTRPPRLPRPRPRPMCGPRP
shrunken log2 fold change: -0.171

RRIRTRPPRLPRPRPRPMDEPRP
shrunken log2 fold change: -0.219

RRIRTRPPRLPRPRPRPMDGPRP
shrunken log2 fold change: -0.123

RRIRTRPPRLPRPRPRPMDNPRP
shrunken log2 fold change: -0.458

RRIRTRPPRLPRPRPRPMEVPRP
shrunken log2 fold change: 0.117

RRIRTRPPRLPRPRPRPMFCPRP
shrunken log2 fold change: -0.628

RRIRTRPPRLPRPRPRPMHFPRP
shrunken log2 fold change: -0.0728

RRIRTRPPRLPRPRPRPMHGPRP
shrunken log2 fold change: -0.0017

RRIRTRPPRLPRPRPRPMKEPRP
shrunken log2 fold change: -0.164

RRIRTRPPRLPRPRPRPMKIPRP
shrunken log2 fold change: 0.0884

RRIRTRPPRLPRPRPRPMLVPRP
shrunken log2 fold change: -0.000238

RRIRTRPPRLPRPRPRPMMVPRP
shrunken log2 fold change: -0.18

RRIRTRPPRLPRPRPRPMNWPRP
shrunken log2 fold change: -0.234

RRIRTRPPRLPRPRPRPMPIPRP
shrunken log2 fold change: -0.0197

RRIRTRPPRLPRPRPRPMPLPRP
shrunken log2 fold change: -0.104

RRIRTRPPRLPRPRPRPMRLPRP
shrunken log2 fold change: -0.0194

RRIRTRPPRLPRPRPRPMSAPRP
shrunken log2 fold change: -0.152

RRIRTRPPRLPRPRPRPMSQPRP
shrunken log2 fold change: -0.000911

RRIRTRPPRLPRPRPRPMVKPRP
shrunken log2 fold change: -0.0282

RRIRTRPPRLPRPRPRPMYCPRP
shrunken log2 fold change: -0.873

RRIRTRPPRLPRPRPRPMYTPRP
shrunken log2 fold change: -0.156

RRIRTRPPRLPRPRPRPMYVPRP
shrunken log2 fold change: 0.0319

RRIRTRPPRLPRPRPRPNCNPRP
shrunken log2 fold change: -0.353

RRIRTRPPRLPRPRPRPNCWPRP
shrunken log2 fold change: 0.0359

RRIRTRPPRLPRPRPRPNESPRP
shrunken log2 fold change: -0.379

RRIRTRPPRLPRPRPRPNEWPRP
shrunken log2 fold change: -0.0827

RRIRTRPPRLPRPRPRPNFHPRP
shrunken log2 fold change: -0.19

RRIRTRPPRLPRPRPRPNFPPRP
shrunken log2 fold change: -0.00778

RRIRTRPPRLPRPRPRPNGDPRP
shrunken log2 fold change: -0.0598

RRIRTRPPRLPRPRPRPNGHPRP
shrunken log2 fold change: 0.0943

RRIRTRPPRLPRPRPRPNIGPRP
shrunken log2 fold change: -0.0888

RRIRTRPPRLPRPRPRPNISPRP
shrunken log2 fold change: -0.293

RRIRTRPPRLPRPRPRPNLYPRP
shrunken log2 fold change: -0.255

RRIRTRPPRLPRPRPRPNMTPRP
shrunken log2 fold change: -0.0848

RRIRTRPPRLPRPRPRPNNQPRP
shrunken log2 fold change: -0.665

RRIRTRPPRLPRPRPRPNPLPRP
shrunken log2 fold change: -0.216

RRIRTRPPRLPRPRPRPNRGPRP
shrunken log2 fold change: -0.0939

RRIRTRPPRLPRPRPRPNRLPRP
shrunken log2 fold change: 0.0657

RRIRTRPPRLPRPRPRPNSFPRP
shrunken log2 fold change: -0.00453

RRIRTRPPRLPRPRPRPNSMPRP
shrunken log2 fold change: -0.496

RRIRTRPPRLPRPRPRPNSNPRP
shrunken log2 fold change: -0.716

RRIRTRPPRLPRPRPRPNVRPRP
shrunken log2 fold change: 0.075

RRIRTRPPRLPRPRPRPPAGPRP
shrunken log2 fold change: 0.279

RRIRTRPPRLPRPRPRPPAVPRP
shrunken log2 fold change: 0.292

RRIRTRPPRLPRPRPRPPCVPRP
shrunken log2 fold change: -0.121

RRIRTRPPRLPRPRPRPPECPRP
shrunken log2 fold change: 0.0838

RRIRTRPPRLPRPRPRPPEDPRP
shrunken log2 fold change: -0.0168

RRIRTRPPRLPRPRPRPPEEPRP
shrunken log2 fold change: -0.00968

RRIRTRPPRLPRPRPRPPEHPRP
shrunken log2 fold change: 0.0826

RRIRTRPPRLPRPRPRPPENPRP
shrunken log2 fold change: 0.201

RRIRTRPPRLPRPRPRPPFKPRP
shrunken log2 fold change: 0.332

RRIRTRPPRLPRPRPRPPGYPRP
shrunken log2 fold change: 0.0573

RRIRTRPPRLPRPRPRPPHSPRP
shrunken log2 fold change: -0.141

RRIRTRPPRLPRPRPRPPICPRP
shrunken log2 fold change: 0.0623

RRIRTRPPRLPRPRPRPPIMPRP
shrunken log2 fold change: -0.454

RRIRTRPPRLPRPRPRPPIQPRP
shrunken log2 fold change: 0.0675

RRIRTRPPRLPRPRPRPPLAPRP
shrunken log2 fold change: 0.65

RRIRTRPPRLPRPRPRPPMTPRP
shrunken log2 fold change: 0.172

RRIRTRPPRLPRPRPRPPNFPRP
shrunken log2 fold change: -0.0576

RRIRTRPPRLPRPRPRPPNSPRP
shrunken log2 fold change: 0.0134

RRIRTRPPRLPRPRPRPPPAPRP
shrunken log2 fold change: 0.746

RRIRTRPPRLPRPRPRPPSCPRP
shrunken log2 fold change: 0.35

RRIRTRPPRLPRPRPRPPSWPRP
shrunken log2 fold change: 0.345

RRIRTRPPRLPRPRPRPPSYPRP
shrunken log2 fold change: -0.0622

RRIRTRPPRLPRPRPRPPVAPRP
shrunken log2 fold change: 0.428

RRIRTRPPRLPRPRPRPPVHPRP
shrunken log2 fold change: 0.0813

RRIRTRPPRLPRPRPRPPWRPRP
shrunken log2 fold change: 0.747

RRIRTRPPRLPRPRPRPPYCPRP
shrunken log2 fold change: -0.112

RRIRTRPPRLPRPRPRPQAKPRP
shrunken log2 fold change: -0.147

RRIRTRPPRLPRPRPRPQEEPRP
shrunken log2 fold change: -0.0236

RRIRTRPPRLPRPRPRPQGGPRP
shrunken log2 fold change: 0.114

RRIRTRPPRLPRPRPRPQHGPRP
shrunken log2 fold change: -0.187

RRIRTRPPRLPRPRPRPQHKPRP
shrunken log2 fold change: -0.0821

RRIRTRPPRLPRPRPRPQHYPRP
shrunken log2 fold change: -0.691

RRIRTRPPRLPRPRPRPQICPRP
shrunken log2 fold change: 0.13

RRIRTRPPRLPRPRPRPQIIPRP
shrunken log2 fold change: -0.358

RRIRTRPPRLPRPRPRPQILPRP
shrunken log2 fold change: -0.105

RRIRTRPPRLPRPRPRPQIWPRP
shrunken log2 fold change: 0.0741

RRIRTRPPRLPRPRPRPQKRPRP
shrunken log2 fold change: 0.206

RRIRTRPPRLPRPRPRPQLAPRP
shrunken log2 fold change: 0.129

RRIRTRPPRLPRPRPRPQMDPRP
shrunken log2 fold change: -0.195

RRIRTRPPRLPRPRPRPQMIPRP
shrunken log2 fold change: -0.346

RRIRTRPPRLPRPRPRPQMNPRP
shrunken log2 fold change: -0.345

RRIRTRPPRLPRPRPRPQMPPRP
shrunken log2 fold change: 0.588

RRIRTRPPRLPRPRPRPQNQPRP
shrunken log2 fold change: -0.584

RRIRTRPPRLPRPRPRPQPLPRP
shrunken log2 fold change: 0.284

RRIRTRPPRLPRPRPRPQPVPRP
shrunken log2 fold change: -0.0826

RRIRTRPPRLPRPRPRPQQKPRP
shrunken log2 fold change: -0.0118

RRIRTRPPRLPRPRPRPQSFPRP
shrunken log2 fold change: 0.015

RRIRTRPPRLPRPRPRPQTMPRP
shrunken log2 fold change: -0.151

RRIRTRPPRLPRPRPRPQTQPRP
shrunken log2 fold change: -0.0967

RRIRTRPPRLPRPRPRPQWPPRP
shrunken log2 fold change: 0.0505

RRIRTRPPRLPRPRPRPQWYPRP
shrunken log2 fold change: -0.524
